Data reported in PMC9340783 (2022).
Numbering of substitutions follows the chain as printed.

B1: hab076 (antibody, V domains shown)
VH: QVQLVESGGGVVQPGRSLRLSCAASGFTFSSYGMHWVRQAPGKGLEWVAVIWYETSNKYYADSVKGRFTISRDNSKNTLYLQMNSLRAEDTAVYYCARYGASSGWYWYFDLWGRGTLVTVSS
VL: DIQLTQSPSFLSASVGDRVTITCRASQGISSYLAWYQQKPGKAPKLLIYAASTLQSGVPSRFSGSGSGTEFTLTISSLQPEDFATYCCQQLNSYPFTFGQGTKLEIK
B2: hab019e2 (antibody, V domains shown)
VH: QVQLVESGGGVVQPGRSLRLSCAASGFTFSSYGMHWVRQAPGKGLEWVAVIWYAGSRKFYADSVEGRFTISRDNSKNTLYLQMNSLRAEDTAVYYCARGGSLEGGFFYYGMDVWGQGTTVTVSS
VL: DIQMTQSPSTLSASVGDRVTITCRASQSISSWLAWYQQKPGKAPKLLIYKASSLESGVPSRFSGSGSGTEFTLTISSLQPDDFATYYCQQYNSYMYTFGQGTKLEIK
B3: hab070 (antibody, V domains shown)
VH: B1 VH with Y59F, A61V
VL: B1 VL with Y32F
B4: hab019 (antibody, V domains shown)
VH: B2 VH with N84S, L86V, A88P, E103D
VL: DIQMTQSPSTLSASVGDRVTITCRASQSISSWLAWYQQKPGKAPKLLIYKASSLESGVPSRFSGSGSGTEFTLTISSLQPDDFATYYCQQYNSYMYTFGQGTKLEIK
B5: hab064 (antibody, V domains shown)
VH: B1 VH with S85N, A101G, S102N
VL: B1 VL with Y32F, K42T
B6: hab070e1 (antibody, V domains shown)
VH: B1 VH with Y59F, A61V
VL: B1 VL with Y32F, C87Y

These binders were tested against hGITR ECD hFc (human, UniProt Q9Y5U5 26-161, Thr45Ala) (assay: SPR).
Chain of hGITR ECD hFc (Q9Y5U5 26-161 T45A): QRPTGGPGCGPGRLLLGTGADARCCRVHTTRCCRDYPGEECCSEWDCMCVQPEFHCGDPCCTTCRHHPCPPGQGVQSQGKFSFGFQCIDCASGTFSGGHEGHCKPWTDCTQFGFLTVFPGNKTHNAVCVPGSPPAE

Row | Binder | koff [s⁻¹]
1 | B1 | 0.000684
2 | B2 | 0.00023
3 | B3 | 0.000185
4 | B4 | 0.000205
5 | B5 | 0.000315
6 | B6 | 0.000381
